According to CN114958811A:

Molecular target: RBD-His (近岸生物 货号 DRA42) (SARS-CoV-2) (UniProt P0DTC2)

Substance “hACE2-Fc融合蛋白 (fusion of the human ACE2 extracellular domain with the Fc fragment of human IgG1) (Fc fusion)” has a 亲和力 of 0.54 nM.
